For assay [1], the target named is PKM2 (mouse (endogenous in primary astrocytes and striatum)) (UniProt P52480). Put plainly: native gel or EMSA; blue native PAGE of striatum of Drd2 flox/flox and Drd2 hGFAPcKO mice after 5 mg/kg quinpirole or pyridoxine for 7 days, immunoblot for PKM2; tetramer to dimers.
The target is the same in assay [2]. Put plainly: native gel or EMSA; blue native PAGE (8%, 4 °C) of digitonin lysates of primary astrocytes, immunoblot for PKM2; tetramer to dimers; cells treated with quinpirole, DASA-58, PTX, β-arrestin siRNA, pyridoxine. For orientation: Mobility shift assays separate free from complexed probe on a gel.
The target in assay [3] is Purified recombinant PKM2 (UniProt P52480). Put plainly: native gel or EMSA; blue native PAGE of purified recombinant PKM2 mixed with natural products (vindoline, pyridoxine and others); tetramer to dimers.

Where “and” joins values, the source holds several entries; their conditions need not be identical. Equal entries are not always repeated.

Broadly, the stoichiometry N is a count of units in the complex or per binding partner.

PKM2, P52480 1-531 (enzyme; other documents disagree on this pair), sequence (P52480 whole entry): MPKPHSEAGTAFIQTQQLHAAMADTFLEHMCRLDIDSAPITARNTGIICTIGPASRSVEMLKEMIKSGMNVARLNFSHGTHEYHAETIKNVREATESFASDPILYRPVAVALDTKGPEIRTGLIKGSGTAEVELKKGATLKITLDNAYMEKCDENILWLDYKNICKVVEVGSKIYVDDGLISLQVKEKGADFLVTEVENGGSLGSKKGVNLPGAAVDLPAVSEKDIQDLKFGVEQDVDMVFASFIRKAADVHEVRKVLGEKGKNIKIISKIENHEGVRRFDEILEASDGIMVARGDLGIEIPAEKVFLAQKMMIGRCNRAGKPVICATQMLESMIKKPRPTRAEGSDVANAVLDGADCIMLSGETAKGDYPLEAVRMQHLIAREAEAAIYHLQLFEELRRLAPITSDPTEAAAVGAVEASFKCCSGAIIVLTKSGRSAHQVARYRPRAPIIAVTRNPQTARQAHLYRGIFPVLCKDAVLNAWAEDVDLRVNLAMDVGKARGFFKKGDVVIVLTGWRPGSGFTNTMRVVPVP
Purified recombinant PKM2, P52480 1-531 (enzyme; other documents disagree on this pair), sequence (P52480 whole entry): as above

As for “PKM2, P52480 1-531 (enzyme; other documents disagree on this pair)”, the stoichiometry N in assay [1] was 2 and 4; in assay [2], 4 and 2.
Take “Purified recombinant PKM2, P52480 1-531 (enzyme; other documents disagree on this pair)”: the stoichiometry N in assay [3] is 2 and 4.

(Values after PMC7029000.)
